Reference: patent US20090238821A1

Legend:
human Aβ peptide (human) [1] = molecular target: human Aβ peptide (human) (UniProt P05067); assay: BIAcore 2000, 266 against 4G8
Amyloid-beta 1-40 = Amyloid-beta 1-40 (UniProt P05067); assay: BIAcore 2000, antibody captured by rabbit anti-mouse, peptide flowed
Amyloid-beta 1-42 = Amyloid-beta 1-42 (UniProt P05067); assay: as above
human Aβ peptide (human) [2] = molecular target: human Aβ peptide (human) (UniProt P05067); assay: plasma of APP V717F mice given 200 or 600 µg Mab 266 i.v., RIA (in vivo)
human Aβ peptide (human) [3] = molecular target: human Aβ peptide (human) (UniProt P05067); assay: dialysis chamber, 1 mL human CSF against 1 µg Mab 266, 25 kD cutoff, 3 hours, ELISA
human Aβ peptide (human) [4] = molecular target: human Aβ peptide (human) (UniProt P05067); assay: dialysis chamber, 1 mL human CSF against 1 µg Mab 266, 100 kD cutoff, 3 hours, ELISA
[5] = molecular target: β-amyloid peptide (1-42) conjugated to BSA (UniProt P05067); assay: competitive ELISA on Aβ1-42-BSA, competitor of biotinylated Mu266 (0.3 µg/ml), first set
[6] = molecular target: β-amyloid peptide (1-42) conjugated to BSA (UniProt P05067); assay: competitive ELISA on Aβ1-42-BSA, competitor of biotinylated Mu266 (0.3 µg/ml), second set
human Aβ peptide (human) [7] = molecular target: human Aβ peptide (human) (UniProt P05067); assay: plasma of APP V717F mice given 1 mg Mab 266 i.v., non-denaturing gel, blot with biotin-3D6 and 125I-streptavidin against Aβ40/266 standards (in vivo)

Substance | fold difference in affinity between 266 and 4G8 (human Aβ peptide (human) [1]) | Kd (Amyloid-beta 1-40) | Kd (Amyloid-beta 1-42) | concentration of Aβ bound to Mab 266 in plasma (human Aβ peptide (human) [2]) | percent of Aβ peptide sequestered in the bottom chamber (human Aβ peptide (human) [3]) | percent of Aβ peptide drawn across the membrane (human Aβ peptide (human) [4]) | IC50 [5] | IC50 [6] | amount of Aβ peptide bound to Mab 266 in plasma (human Aβ peptide (human) [7])
mouse monoclonal antibody 266 | 6000 fold | 4000 nM | 4000 nM | > 100 ng/mL | 50% | 100% | 4.7 µg/mL | 3.87 µg/mL | 100 ng/mL
Mab 4G8 (antibody) |  | 23 nM | 24 nM |  |  |  |  |  | 
